Laboratory results: FireProtDB (doi:10.1021/cb5003762)
Values joined by “and” are separate entries in the source; they are usually repeats but may differ in a detail not shown here. Equal values may be shown once.

B1: Histone deacetylase 8, Q9BY41 (parent)
chain: MEEPEEPADSGQSLVPVYIYSPEYVSMCDSLAKIPKRASMVHSLIEAYALHKQMRIVKPKVASMEEMATFHTDAYLQHLQKVSQEGDDDHPDSIEYGLGYDCPATEGIFDYAAAIGGATITAAQCLIDGMCKVAINWSGGWHHAKKDEASGFCYLNDAVLGILRLRRKFERILYVDLDLHHGDGVEDAFSFTSKVMTVSLHKFSPGFFPGTGDVSDVGLGKGRYYSVNVPIQDGIQDEKYYQICESVLKEVYQAFNPKAVVLQLGADTIAGDPMCSFNMTPVGIGKCLKYILQWQLATLILGGGGYNLANTARCWTYLTGVILGKTLSSEIPDHEFFTAYGPDYVLEITPSCRPDRNEPHRIQQILNYIKGNLKHVV

Variants of: B1
Settings: Homo sapiens; pH 7.5; Thermal; fluorescence; Hepes 25 mM; KCl 150 mM; structure 2V5W; whole UniProt chain shown

| Variant | Tm |
| --- | --- |
| MEEPEEPADSGQSLVPVYIYSPEYVSMCDSLAKIPKRASMVHSLIEAYALHKQMRIVKPKVASMEEMATFHTDAYLQHLQKVSQEGDDDHPDSIEYGLGYDCPATEGIFDYAAAIGGATITAAQCLIDGMCKVAINWSGGWHHAKKDEASGFFYLNDAVLGILRLRRKFERILYVDLDLHHGDGVEDAFSFTSKVMTVSLHKFSPGFFPGTGDVSDVGLGKGRYYSVNVPIQDGIQDEKYYQICESVLKEVYQAFNPKAVVLQLGADTIAGDPMCSFNMTPVGIGKCLKYILQWQLATLILGGGGYNLANTARCWTYLTGVILGKTLSSEIPDHEFFTAYGPDYVLEITPSCRPDRNEPHRIQQILNYIKGNLKHVV [C153F] | 50.6 °C |
| MEEPEEPADSGQSLVPVYIYSPEYVSMCDSLAKIPKRASMVHSLIEAYALHKQMRIVKPKVASMEEMATFHTDAYLQHLQKVSQEGDDDHPDSIEYGLGYDCPATEGIFDYAAAIGGATITAAQCLIDGMCKVAINWSGGWHHAKKDEASGFCYLNDAVLGILRLRRKFERILYVDLDLHHGDGVEDTFSFTSKVMTVSLHKFSPGFFPGTGDVSDVGLGKGRYYSVNVPIQDGIQDEKYYQICESVLKEVYQAFNPKAVVLQLGADTIAGDPMCSFNMTPVGIGKCLKYILQWQLATLILGGGGYNLANTARCWTYLTGVILGKTLSSEIPDHEFFTAYGPDYVLEITPSCRPDRNEPHRIQQILNYIKGNLKHVV [A188T] | 46.5 °C and 50.6 °C |
